Experimental findings from patent publication CN114989293A (UNIV CHONGQING MEDICAL; FENG YULIN, dated 2022) are described below.

The target of the assay is 新冠病毒(SARS-CoV-2) S蛋白受体结合域 RBD (SARS-CoV-2, UniProt P0DTC2 319-541). As to the kind of experiment: ELISA, antigen coated at 2 μg/mL, 293T supernatant, anti-human IgG-ALP detection.

B1: 单抗18-CQTS083 (antibody, V domains shown)
VH: EVQLVESGGGLVQPGGSLRLSCAASGLTVSSNYMSWVRQAPGKGLEWVSLIYSGGSTYYADSVKGRFTISRHNSKNTLYLQMNSLRAEDTAVYYCARDLEERGAMDVWGQGTTVTVSS
VL: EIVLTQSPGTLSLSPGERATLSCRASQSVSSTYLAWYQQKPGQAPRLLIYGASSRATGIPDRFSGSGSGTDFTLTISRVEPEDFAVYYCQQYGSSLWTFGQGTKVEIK
As to B1, the binding result was “binds”.

B2: 单抗17-CQTS082 (antibody, V domains shown)
VH: EVQLVQSGAEVKKPGESLKISCKGSGYSFSTYWIGWVRQMPGKGLEWMGIIYPYDSDTRYSPSFQGQVTISADKSISTAYLQWSSLKASDTAIYYCARQESGWSFDYWGQGTLVTVSS
VL: DIQMTQSPSSLSASVGDRVTITCRASQNINKYLNWYQQKPGKAPKLLIYVASSLQSGVPSRFSGSGSGTDFTLTISSLQPEDFATYYCQQSYSTPRTFGQGTKVEIK
For the molecule B2, the binding result is on record as “binds”.

B3: 单抗13-CQTS078 (antibody, V domains shown)
VH: QVQLVQSGAEVKKPGASVRVSCKASGDTFSSHYIHWVRQAPGQGLEWMGIINPSGGSTSYAQKFQGRVTMTSDTSTSTVYLELSSLRSEDTAVYYCARDQAFIVATLGPDYWGQGILVTVSS
VL: QTVVTQEPSFSVSPGGTVTLTCGLSSGSVSTSYYASWYQQTPGQAPRTLIYSTNTRSSGVPDRFSGSILGNKAALTITGAQADDESDYYCVLYMGSGIWVFGGGTKLTVL
For B3, the binding result was “binds”.

B4: 单抗12-CQTS077 (antibody, V domains shown)
VH: EVQLVESGGGVVQPGGSLRLSCAASGFTFDDYAMNWVRQAPGKGLEWVSLISGDGDSPSYSGSVKGRFTISRDNSKNSLYLQMISLRTEDTALYYCARESPKLTGYFDYWGQGTLVTVSS
VL: SYVLTQPPSVSVAPGQTAGITCGGDDIGSKNVHWYQQKPGQAPVLVVYDDHDRPSGIPERFSGSNSGNTATLTISRVEAGDEADYYCQVWDSSSDPYVFGTGTKVTVL
As to B4, the binding result is reported as “binds”.

B5: 单抗14-CQTS079 (antibody, V domains shown)
VH: EVQLVESGGGLIQPGGSLRLSCAASGFTVSSNYMSWVRQAPGKGLEWVSVIYSGDNTYYADSVKGRFTISRDNSKNTLYLQMNSLRAEDTAVYYCAKMLWLRGWFDPWGQGTLVTVSS
VL: NFMLTQPHSVSESPGKTVTISCTRSSGSIASNYVQWYQQRPGSAPTTVIYEDNQRPSGVPDRFSGSIDSSSDSASLTISGLKTEDEADYYCQSYDTSNHWVFGGGTKLTVL
B5: the binding result was “binds”.

B6: 单抗19-CQTS086 (antibody, V domains shown)
VH: EVQLVESGGGLVQPGGSLRLSCAASGITVNSNYMSWVRQAPGKGLEWVSVIYNGVTTYYADSVKGRFTISRDISKNTVYLQMNSLRAEDTAVYYCARAGWLRGRFDPWGQGTLVIVSS
VL: SYVLTQPPSVSVAPGQTASITCGGSNIGSKNVHWYQQKSGQAPVLVVYDDSDRPSGIPERFSGSNSGNTATLIINRVEAGDEADYYCQVWDSTTDLPHWVFGGGTKLTVL
As to B6, the binding result is on record as “binds”.

B7: 单抗15-CQTS080 (antibody, V domains shown)
VH: QVTLRESGPALVRPTQTLTLTCTFAGFSLRTHGMCVSWIRQPPGKALEWLARIDWDGDKYYSTSLKTRLTISKDTSKDQVVLTMTNMDPVDTATYYCARFLVGGFKAWFDPWGQGTLVTVSS
VL: QSVLTQPPSVSAAPGQKVTISCSGSSSNIGNNYVSWYQQLPGIAPELLIYDNNKRPSGIPGRFSGSRSGTSATLDITGLQTGDEADYYCGTWDTSLNVWVFGGGTKLTVL
For B7, the binding result is reported as “binds”.
